Measured values as given in the DeepSol protein solubility set.

Test: soluble on expression in E. coli; label from the status in PepcDB or PDB records

Sequence | soluble on expression in E. coli
METRRRSSRLQQQTTSDLNAREEPQPSEPPVKRARGAKKNEAPSTAPMPPKTTKKSTKPSRKQGSPIEAELDEMGFELENEEEAEIVVQKSKKNGRKLVKIDENLRISAENGSKSSNFLEENRMEIDEKPGNLAKKSSKNGSRVVKSDEKSENLVQSVPKSTTNGSKVAIIEDDPEIRAENGVKSSKSDEKPDFSAQNGSKLAQNAPNRISRPRRSVTTAKKVSYVPSDDQLELSSSSSELESSSEDEDTEIRPKTGSKIAKKREKSFKISESESSSESPDDESEASEASEDPSIPGPSEPRKRRKIQRKSTLSSGGATTKDLHWPKCSKASIARKTGNPGSKNAAKKPAKSSLRMAQKQKPDQPWKKNLKDYETDRKLAKGERRMLEYRHVAHAYVARGKIEEITYDEAYKLHEMMKKAYFAGRSLLDAAVLDPVEFEKSQKNVKKSEKNDEKNTAGDSSSSEDEWEEMEHFQPPIIDDNIEVSIDHEGGGGDDGEEVVKDWWAIYLRQEINRKIREMWENTHKLLFCLLRGLELTTRLVVNVRAIPRRWDKTQQKELQNELSKFRELSRSRSTTPGEKSLEIQEKSGEKSQKPAKKGQKSEKKAAKKVVVEERNYWVEYWQPREKRWICVDPLHKSVDEPLSIHEHSASPISYVFAIDNKQGICEVSQRYAMDCVKQDFRRRRTNPKWVAWTLFLPPFAANSERKKWEMMQMREDLVKRPLPTVMSEYKNHPLYALEKDLLKFEAIYPPPATQKPLGQIRGHNVYPRSTVFTLQGENNWLKLARSVKIGEKPYKIVKARPDPRIPVEDREDKFLDVYGYWQTEKYRRPPLKNGKIPHNEYGNVYMFNENMCPLDCTYLKLSGLVQISRKLGKQCIPAVVGWAFDGGFTHPVIDGAIVLEKDAIDFINAWEKLESGRAEKEEKQRVEKIHENWKKLIKGMLRLAYVRKQFGHPAAEKPTKRQKIGGKTEEIEENEGGAGPPSSVDHITDNTEQITPMHGFSLDDFINKKK | soluble
MSRRAPMFKPLPITLQRGALRLEPLVEADIPELVSLAEANREALQYMDGPTRPDWYRQSLAEQREGRALPLAVRLGVQLVGTTRFAEFLPALPACEIGWTWLDQAQHGSGLNRMIKYLMLKHAFDNLRMVRVQLSTAASNLRAQGAIDKLGAQREGVLRNHRRLAGGRLDDTFVYSITDHEWPQVKAALEASFTG | soluble
RDHIILIGWNEKTNRLLKDLQLGAPSKTVVLIDESLTEGPLIENVHFIRGHAADDGTLKRANITEAESVMITADQYKSETDADMLSVLTLLSVKGLNPLAYCIVEILTDRFVTNAERAGANQIIGTSEFISRAMLQHYQVKLR | not soluble
MGSDKIHHHHHHMTPEQFEVKANPALWERLGMNVERFSGMPKMLTEAFRGIYLSQKNRPARMEYFDGMIAELHSGRVEELVTAKDAGRPVVGTFCVYVPEEVIMAVGGICVGLCGGSQGSIPDAEKVLPRNICPMVKSAFGFKLGKICPYFQAVDLVYGETTCDAKKKTWELLDREVPTHVMEIPQMKRARDKALWLEEVKDFTSKMEEVSGRKATAEGIGAAIRVMNAKRLALQRLNDLRHHTPSPISGKDMLLIQQIAFYDDPARFTANVNELCDELDERIAAGVAVAPAATPRVMVSGTPMALPNWKLHHLIESAGAVVVNEESCIGTRYYKDLTDESTATVDEQLSLLTDRYMKIDCSCFTPNDDRIEQVLVEYRASGAQGLIDYCLQFCHTYNIEAVKLREMCEREGIPFLAIETDYSPEDVGQLQTRIEAFIEQIRG | not soluble
MGSMAHSDGIFKKEQAMCLEKIQRANELMGFNDSSPGCPGMWDNITCWKPAHVGEMVLVSCPELFRIFNPDQDMGVVSRNCTEDGWSEPFPHYFDACGFDEYESET | soluble
MEGIMNPYTALPTPQQLLAIEQSVYSSDPFRQGLTPPQMPGDHMHPYGAEPLFHDLDSDDTSLSNLGDCFLATSEAGPLQSRVGNPIDHLYSMQNSYFTS | soluble
TKDFSWNTTFNISHNKNEIVTLDGMQTEIISGTQIRKVGKSYRTFYMIEFAGINPETGAPQFYTNDLDENGNYIKEITEKYSEANAIVLDKHAEPNVIGGLSNTLRYKWFDLNFMFSYQFGGYSYDNWAQKTEHGGNDLEANIPTYYRDSWKQPGDITKYELFIESPDVAMNKSTTTRRLHSSDFIRLKTLTFGITLPQVWTQKIGVNNVRVYASANNLWTWAAYDYYDPEAVSGGSAIWGTPPLKTVTFGLSVNF | not soluble
MRSLTHIAKIELPPVRRVTYVKHYSIQPANLEFNAEGTPVSRDFDDVYFSNDNGLEETRYVFLGGNQLEARFPEHPHPLFVVAESGFGTGLNFLTLWQAFDQFREAHPQAQLQRLHFISFEKFPLTRADLALAHQHWPELAPWAEQLQAQWPMPLPGCHRLLLDEGRVTLDLWFGDINELISQLDDSLNQKVDAWFLDGFAPAKNPDMWTQNLFNAMARLARPGGTLATFTSAGFVRRGLQEAGFTMQKRKGFGRKREMLCGVMEQTLPLPCSTPWFNRTGSSKREVAIIGGGIASALLSLALLRRGWQVTLYCADEAPALGASGNRQGALYPLLSKHDEALNRFFSNGFTFARRLYDSLPVKFDHDWCGVTQLGWDEKSQHKIAQMLSMDLPEELAVAVEANAVEQITGVTTNCSGITYPQGGWLCPAELTRNVLELAQQQGLQIYYQYQLQDLSRKDDCWLLTFAGDQQATHSVVVLANGHQISRFSQTSSLPVYSVAGQVSHIPTTPELAKLKQVLCYDGYLTPQNPANQHHCIGASYHRGSEETAYSEDNQQQNRQRLIDCFPHAQWAKTVDVSKKEARCGVRCATRDHLPMVGNVPDYEATLVEYASLAEQKDKAVSAPVFDDLFMFAALGSRGLCSAPLCAEILAAQMSDEPIPMDASTLAALNPNRLWVRKLLKGKAVKAG | not soluble
MRVLVRDLKAHVGQEVELLGFLHWRRDLGRIQFLLLRDRSGVVQVVTGGLKLPLPESALRVRGLVVENAKAPGGLEVQAKEVEVLSPALEPTPVEIPKEEWRANPDTLLEYRYVTLRGEKARAPLKVQAALVRGFRRYLDRQDFTEIFTPKVVRAGAEGGSGLFGVDYFEKRAYLAQSPQLYKQIMVGVFERVYEVAPVWRMEEHHTSRHLNEYLSLDVEMGFIADEEDLMRLEEALLAEMLEEALNTAGDEIRLLGATWPSFPQDIPRLTHAEAKRILKEELGYPVGQDLSEEAERLLGEYAKERWGSDWLFVTRYPRSVRPFYTYPEEDGTTRSFDLLFRGLEITSGGQRIHRYEELLESLKAKGMDPEAFHGYLEVFKYGMPPHGGFAIGAERLTQKLLGLPNVRYARAFPRDRHRLTP | soluble
MSLQIEFREFNPFDCWIWVEFSTVPAPLEQQYLEELFDSWFFLGKLGGFNAENLQAQEEGLELSYMSYQSAQERSSLAALMHNMGEVEYQGRWARCWFDLGTSDAIALDVLLNALQRLSEEMVGLEQVFVGGENADWPSPGRRSLDFAADEGHHHHHH | soluble
MGSDKIHHHHHHMPGWAGYYLEFHGNAYSAPFSADIYINVAYPYDGKLVELGGSILGHNQYFYVKSPYTFPDNVHNVDGYVVEWFDEDWQKWVLWHVSYKPALQVIGCPYVSTWNGIEYVPENTVLVESEILKPRKHMDLTDYYLINNSHTIRENIYSIQLQEFEQDTSYIDSIELLVVDYPQGLELSLDPQGNIVLYIPIHTRLNTRFTTEIASSNVNRLKTDLVIVSPYVKTSYSFKVNKVYENKSVESIHLYPRMFPYRYALFTDKDISKLKMELNDHKLYSIEYGIPVNASYHIVKEKPLLATSDIGGEITEELLEDDGHYAVLTPGDNITLNFKVPPALSSRMKRALILVIKGFYVQKPPTLTKDAVRVIYVPEINGYLFVPLLETYDEILSIMWDFGDGTTSDFFVPFHVYKQGKYKGSLKVKYLNGKTLTIPFYWGG | not soluble
MEEMLREIERILEWPRMLKATVISKGFSFDEKYKIELESGASYFIKVCDSSYFERKQEEYEYMQQLDSLHIPMPKLIHFISLTKFNKCVQVFEWIDGLDGEDNLRTLSTQTQYRAGKKAGEVIKKIHLVEKEDKSNSWEMSIWSKYERYLEALKEYEVDFFRLNTVIDFVGNHKDLLKNRPIVFLHDDFHPANIMIDQNEFRAVIDFARFDIGDPIHDFYKVALFTTNISKPFAVGQVHGYCGGEPDLHFWKLYSLYAAMIFPADIVWTNRSTPYLLDDMKERLNGILEDHNDFSSYIPKWYQSSEFNK | not soluble
